The Human Domainome abundance scans (Beltran et al. 2025)
± gives the uncertainty stated by the source.

B1: FERM and PDZ domain-containing protein 4, residues 75 to 154; numbered along this chain, Q14CM0 (parent)
chain: APRKVEMRRDPVLGFGFVAGSEKPVVVRSVTPGGPSEGKLIPGDQIVMINDEPVSAAPRERVIDLVRSCKESILLTVIQP

Variants of: B1
Experiment: abundance fitness (aPCA) (normalised: wild type 0, dead -1); higher = more abundant; growth selection in yeast, the domain comes from the species named
Conditions: Homo sapiens

Row | Variant | abundance fitness
1 | P35T | -0.543 ± 0.039
2 | P35E | -0.35 ± 0.037
3 | P35Y | -0.708 ± 0.091
4 | P35S | -0.394 ± 0.033
5 | P35M | -0.355 ± 0.038
6 | P35K | -0.59 ± 0.047
7 | P35A | -0.202 ± 0.028
8 | P35V | -0.331 ± 0.028
9 | P35C | -0.435 ± 0.05
10 | P35Q | -0.33 ± 0.038
11 | P35R | -0.486 ± 0.025
12 | P35I | -0.622 ± 0.088
13 | P35N | -0.213 ± 0.053
14 | P35L | -0.857 ± 0.044
15 | P35W | -1.08 ± 0.074
16 | P35D | -0.737 ± 0.07
17 | P35G | -0.661 ± 0.032
18 | L40V | -0.156 ± 0.022
19 | L40D | -0.965 ± 0.079
20 | L40E | -0.989 ± 0.054
21 | L40W | -1.07 ± 0.046
22 | L40H | -1.07 ± 0.12
23 | L40N | -0.94 ± 0.087
24 | L40G | -1.01 ± 0.034

Row | Variant | abundance fitness
25 | L40I | -0.125 ± 0.045
26 | L40Y | -1.02 ± 0.12
27 | L40M | -0.19 ± 0.029
28 | L40S | -0.87 ± 0.037
29 | L40A | -0.871 ± 0.039
30 | L40F | -0.8 ± 0.069
31 | L40T | -0.846 ± 0.055
32 | L40R | -0.978 ± 0.035
33 | L40P | -0.928 ± 0.059
34 | S36H | -0.741 ± 0.074
35 | S36K | -1.1 ± 0.087
36 | S36L | -0.867 ± 0.041
37 | S36V | -0.668 ± 0.033
38 | S36R | -1.07 ± 0.042
39 | S36G | -0.05 ± 0.022
40 | S36T | -0.477 ± 0.031
41 | S36Y | -0.927 ± 0.096
42 | S36M | -0.567 ± 0.041
43 | S36E | -0.866 ± 0.05
44 | S36A | 0.032 ± 0.023
45 | S36F | -0.742 ± 0.067
46 | S36N | -0.606 ± 0.062
47 | S36Q | -0.81 ± 0.052
48 | S36D | -0.826 ± 0.072

Row | Variant | abundance fitness
49 | S36C | -0.051 ± 0.032
50 | G33P | -0.871 ± 0.055
51 | G33W | -0.228 ± 0.029
52 | G33I | -0.332 ± 0.055
53 | G33N | -0.089 ± 0.048
54 | G33K | -0.064 ± 0.033
55 | G33R | -0.104 ± 0.022
56 | G33S | -0.088 ± 0.025
57 | G33Q | -0.122 ± 0.034
58 | G33H | -0.101 ± 0.045
59 | G33F | -0.116 ± 0.046
60 | G33L | -0.104 ± 0.024
61 | G33D | -0.024 ± 0.039
62 | G33E | -0.112 ± 0.03
63 | G33V | -0.328 ± 0.027
64 | G33A | -0.055 ± 0.025
65 | G33M | -0.124 ± 0.033
66 | G33T | -0.157 ± 0.031
67 | E37Q | -0.034 ± 0.031
68 | E37L | -0.235 ± 0.026
69 | E37R | -0.211 ± 0.022
70 | E37C | -0.046 ± 0.033
71 | E37T | -0.126 ± 0.029
72 | E37D | -0.028 ± 0.035

Row | Variant | abundance fitness
73 | E37M | -0.122 ± 0.032
74 | E37N | -0.106 ± 0.045
75 | E37Y | -0.044 ± 0.041
76 | E37P | -0.985 ± 0.059
77 | E37G | -0.173 ± 0.021
78 | E37H | -0.09 ± 0.045
79 | E37V | -0.057 ± 0.023
80 | E37K | -0.176 ± 0.033
81 | E37F | -0.103 ± 0.038
82 | E37I | -0.145 ± 0.046
83 | K39G | -0.264 ± 0.021
84 | K39P | -0.679 ± 0.04
85 | K39R | -0.03 ± 0.02
86 | K39T | -0.201 ± 0.029
87 | K39E | -0.135 ± 0.027
88 | K39H | -0.028 ± 0.038
89 | K39L | 0.005 ± 0.022
90 | K39Y | -0.068 ± 0.035
91 | K39W | -0.145 ± 0.025
92 | K39A | -0.079 ± 0.023
93 | K39I | 0.005 ± 0.036
94 | K39M | -0.045 ± 0.028
95 | K39C | -0.036 ± 0.03
96 | K39D | -0.546 ± 0.041

Row | Variant | abundance fitness
97 | K39F | -0.036 ± 0.038
98 | K39V | -0.06 ± 0.022
99 | K39S | -0.119 ± 0.024
100 | K39Q | -0.032 ± 0.031
101 | V25E | -0.796 ± 0.047
102 | V25W | -0.078 ± 0.028
103 | V25G | -0.467 ± 0.025
104 | V25H | -0.135 ± 0.043
105 | V25A | -0.052 ± 0.026
106 | V25D | -0.535 ± 0.048
107 | V25I | -0.116 ± 0.036
108 | V25F | -0.127 ± 0.035
109 | V25L | 0.006 ± 0.024
110 | V25S | 0 ± 0.026
111 | V25M | 0.157 ± 0.046
112 | V25Q | -0.373 ± 0.034
113 | V25R | -0.326 ± 0.023
114 | V25T | 0.004 ± 0.031
115 | V25K | -0.889 ± 0.068
116 | V25Y | -0.144 ± 0.047
117 | V25C | -0.005 ± 0.032
118 | V25N | -0.23 ± 0.046
119 | V27F | -0.79 ± 0.092
120 | V27M | -0.799 ± 0.063

Row | Variant | abundance fitness
121 | V27D | -0.802 ± 0.065
122 | V27G | -0.938 ± 0.032
123 | V27R | -0.958 ± 0.037
124 | V27C | -0.282 ± 0.038
125 | V27P | -0.764 ± 0.058
126 | V27N | -0.851 ± 0.099
127 | V27L | -0.584 ± 0.031
128 | V27W | -1.1 ± 0.068
129 | V27S | -0.947 ± 0.053
130 | V27H | -0.878 ± 0.14
131 | V27A | -0.591 ± 0.033
132 | V27I | -0.07 ± 0.039
133 | V27E | -0.725 ± 0.043
134 | V27T | -0.705 ± 0.053
135 | V27Y | -1.02 ± 0.17
136 | V27K | -0.916 ± 0.073
137 | R28P | -0.725 ± 0.052
138 | R28V | -0.089 ± 0.022
139 | R28M | -0.065 ± 0.029
140 | R28A | -0.032 ± 0.023
141 | R28N | 0.001 ± 0.038
142 | R28K | -0.002 ± 0.03
143 | R28Y | -0.137 ± 0.037
144 | R28T | 0.005 ± 0.029

Row | Variant | abundance fitness
145 | R28Q | 0.027 ± 0.031
146 | R28D | -0.038 ± 0.034
147 | R28H | -0.08 ± 0.039
148 | R28G | -0.014 ± 0.02
149 | R28C | -0.136 ± 0.032
150 | R28L | -0.036 ± 0.024
151 | R28E | 0.034 ± 0.025
152 | R28F | -0.134 ± 0.043
153 | T31W | -0.196 ± 0.032
154 | T31F | -0.149 ± 0.033
155 | T31R | -0.034 ± 0.023
156 | T31Y | -0.117 ± 0.031
157 | T31D | -0.058 ± 0.036
158 | T31C | -0.108 ± 0.033
159 | T31L | -0.168 ± 0.023
160 | T31P | -0.59 ± 0.036
161 | T31I | -0.175 ± 0.03
162 | T31E | -0.013 ± 0.032
163 | T31H | -0.016 ± 0.029
164 | T31V | -0.058 ± 0.025
165 | T31Q | -0.029 ± 0.028
166 | T31G | -0.222 ± 0.029
167 | T31N | -0.055 ± 0.029
